# Measurements: patent US20170210810A1, “BIOMARKER PROFILES FOR PREDICTING OUTCOMES OF CANCER THERAPY WITH ERBB3 INHIBITORS AND/OR CHEMOTHERAPIES” (Merrimack Pharmaceuticals, Inc., priority 2013, published 2017)
# Columns and labels:
# [1] = test system: EGFR-wild-type non-small cell lung cancer (NSCLC)
# Description: A group participating in the study was comprised of 132 patients with wild-type epidermal growth factor receptor (EGFR) who progressed on ≧1 platinum-based standard of care therapy and were EGFR tyrosine kinase inhibitor (TKI)-naïve. […] Data were collected at 10+ months.
# BM+ patients were defined as having detectable HRG mRNA by RNA-ISH (RNA in situ hybridization) as described above in Example 1.
# [2] = cited from earlier work
# [3] = test system: locally advanced or metastatic ER+ and/or PR+, HER2 negative breast cancer; experiment: Randomized, double-blind phase 2 trial of exemestane +/- MM-121 in breast cancer (Example 6)
# Description: This population is for safety analyses, as well as the primary population for all efficacy parameters.
# Analyses were performed on the five pre-specified primary biomarkers, all mechanistically linked to ErbB3 signaling, as measured in FFPE archived tissue blocks. Biomarkers were assessed based on local HR scans. Thresholds for defining biomarker profile positive populations were chosen based on these scans and on results obtained in the above-described ovarian cancer trial. A single two-variable model was assessed using HRG and ErbB2, based on the findings from the above-described ovarian cancer trial. HRs in the biomarker profile positive and negative populations were calculated using a Cox proportional hazard model that included biomarker groups by treatment and stratification factors as additive factors. Only patients with non-missing biomarkers were used in each calculation.
# Both assays were performed using FFPE archived tissue blocks.
# Biomarker profile positive (BM+) and biomarker profile negative (BM−) subpopulations were defined by dichotomizing biomarker values for HRG and ErbB2. For HRG, a cut point of −5 (RT-PCR score) was chosen based on the local HR scan (value at which HR=1). […] Two separate analyses of ErbB2 levels are provided: (1) ErbB2 levels based on the qIHC assay; and (2) for patients where qIHC data are missing, but HCT results were available, ErbB2 levels were adapted from the reported HCT results, with a score of HCT 2+ being deemed equal to log10(ErbB2)=5.1.
# All efficacy analyses for the BM subgroups were performed using a Cox proportional hazard model that included both of the pre-specified strata as additive effects in combination with the treatment effect. The ErbB2 low & HRG high BM+ subpopulation was defined as patients with log10(ErbB2)≦5.1 and HRG RT-PCR>−5.
# [4] = test system: advanced, platinum-resistant ovarian cancer; experiment: Clinical trial in ovarian cancer: paclitaxel with or without MM-121 (Example 5); assay type: in vivo, human
# Description: A clinical trial was performed that was designed to allow, inter alia, determination of associations between biomarker profiles and clinical responses. Biomarker data were measured in pre-treatment biopsies and (when available) in archived tumor samples. Results pertaining to predictive biomarkers measured in pre-treatment biopsies are described herein.
# In total, six primary biomarkers were measured using 15 assays. For the 5 chromogenic assays (qIHC and RNA-ISH), two different overall scores were used: composite score and top-10 score. Accordingly, 20 different variables were assessed at this stage. A Cox proportional hazard model was used to rank the biomarkers. This method determines if PFS varies with biomarker values differently in the treatment arm relative to the control arm. A P-value cutoff of 0.4 was used to determine which biomarkers would be prioritized for subsequent bivariate analyses.
# Based on these two thresholds, a biomarker profile positive (BM+) subpopulation is defined for subsequent analyses as: (ErbB2 levels≦log10 5.1) AND (HRG score≧1) (“ErbB2 low” AND “HRG positive”). Accordingly, a biomarker profile negative (BM−) subpopulation is defined as (ErbB2 levels >log10 5.1) OR (HRG score<1) This definition results in a BM+ prevalence of 34% in the clinical trial population.
# In FIG. 8G (progression free survival at 10+ months) and FIG. 8H (overall survival at 10+ months), the treatment arm is represented by a blue line and the control arm is represented by a black line.
# [5] = best overall response, BM+ (heregulin+) as worded in FIG. 11 legend
# [6] = safety population, count (percentage)
molecule,measurement,setting,value
C#Cc1cccc(Nc2ncnc3cc(OCCOC)c(OCCOC)cc23)c1 [erlotinib],complete response (CR),[1]; [5],none
same,partial response (PR),[1]; [5],6.7%
same,progressive disease (PD),[1]; [5],53.3%
same,PFS of BM− (heregulin−) patients compared with BM+ (heregulin+) patients,[1]; patients treated with erlotinib alone (FIG. 12C),much longer
"C=C1C[C@@H]2[C@H](CC[C@]3(C)C(=O)CC[C@@H]23)[C@@]2(C)C=CC(=O)C=C12 [exemestane, 6-methylenandrosta-1,4-diene-3,17-dione, reference compound]","solubility in N,N-dimethylformamide","[2]; N,N-dimethylformamide",freely soluble
same,solubility in methanol,[2]; methanol,soluble
same,solubility in water,[2]; water,practically insoluble
same,objective response rate,[3]; BM+ patients,0%
same,objective response rate,[3]; BM− patients,5.9%
same,time within which all treated patients exhibited disease progression,[3]; biomarker profile positive tumors (FIG. 10B),≤ 20 weeks
same,PFS of BM− (heregulin−) patients compared with BM+ (heregulin+) patients,[3]; patients treated with exemestane alone (FIG. 10E),much longer
same,Subjects with CTCAE grade 3 or higher TEAE,[3]; [6],15 ( 25.4)
same,Subjects with TEAE leading to death,[3]; [6],1 ( 1.7)
same,Subjects with TEAE leading to dose discontinuation,[3]; [6],0
same,Subjects with TEAE related to study drug (a),[3]; [6],32 ( 54.2)
same,Subjects with at least one AE,[3]; [6],51 ( 86.4)
same,Subjects with at least one TEAE,[3]; [6],50 ( 84.7)
same,Subjects with serious TEAE,[3]; [6],11 ( 18.6)
"CC(=O)O[C@H]1C(=O)[C@@]2(C)[C@H]([C@H](OC(=O)c3ccccc3)[C@]3(O)C[C@H](OC(=O)[C@H](O)[C@@H](NC(=O)c4ccccc4)c4ccccc4)C(C)=C1C3(C)C)[C@]1(OC(C)=O)CO[C@@H]1C[C@@H]2O [paclitaxel, Paclitaxel, reference compound]",PFS of BM− (heregulin−) patients compared with BM+ (heregulin+) patients,[4]; patients treated with paclitaxel alone (FIG. 8I),much longer
"MM-121: anti-ErbB3 monoclonal antibody having VH and VL sequences as shown in SEQ ID NOs: 1 and 2 (antibody, V domains shown) VH: EVQLLESGGGLVQPGGSLRLSCAASGFTFSHYVMAWVRQAPGKGLEWVSSISSSGGWTLYADSVKGRFTISRDNSKNTLYLQMNSLRAEDTAVYYCTRGLKMATIFDYWGQGTLVTVSS VL: QSALTQPASVSGSPGQSITISCTGTSSDVGSYNVVSWYQQHPGKAPKLIIYEVSQRPSGVSNRFSGSKSGNTASLTISGLQTEDEADYYCCSYAGSSIFVIFGGGTKVTVL",HR (trt:ctrl),"[4]; BM+, subgroup ErbB3 score ≧2",0.33
same,HR (trt:ctrl),"[4]; BM+, subgroup ErbB4 score 0",0.13
same,HR (trt:ctrl),"[4]; BM−, subgroup ErbB4 score ≧1",2.20
same,cumulative HR,[4]; patients with detectable levels of HRG and low levels of ErbB2,< 0.5
same,PFS versus erlotinib alone,[1]; unselected overall population (FIG. 12A),overall better outcomes
same,HR,"[3]; Group ErbB2 < 5.1 (HCT), BM negative",3.00
same,HR,"[3]; Group ErbB2 < 5.1 (HCT), BM population",0.82
same,HR,"[3]; Group ErbB2 < 5.1 (HCT), BM positive",0.62
same,HR,"[3]; Group ErbB2 < 5.1 (qIHC) & HRG > −5, BM negative",1.30
same,HR,"[3]; Group ErbB2 < 5.1 (qIHC) & HRG > −5, BM population",0.86
same,HR,"[3]; Group ErbB2 < 5.1 (qIHC) & HRG > −5, BM positive",0.32
same,HR,"[3]; Group ErbB2 < 5.1 (qIHC), BM negative",3.00
same,HR,"[3]; Group ErbB2 < 5.1 (qIHC), BM population",1.16
same,HR,"[3]; Group ErbB2 < 5.1 (qIHC), BM positive",0.84
same,HR,"[3]; Group HRG > −5, BM negative",0.99
same,HR,"[3]; Group HRG > −5, BM population",0.68
same,HR,"[3]; Group HRG > −5, BM positive",0.35
same,benefit (PFS) from adding MM-121 to exemestane therapy,[3]; biomarker negative patient population (FIG. 10A),little if any benefit
same,benefit (PFS) from adding MM-121 to exemestane therapy,[3]; biomarker positive population (FIG. 10B),dramatic benefit
same,decrease in risk of death,"[3]; full patient population, overall survival, vs standard-of-care arm",59%
same,decrease in risk of progression,"[3]; heregulin-positive patients, n=34, final analysis",74%
same,HR,"[3]; no selection, BM population N=115",0.75
